From CN113667018A

Molecular target: N-Ras蛋白 (UniProt P01111)
Assay: indirect ELISA; N-Ras coated at 5 ug/ml, fusion protein diluted 1:100 to 1:3200, anti-His-tag antibody then HRP goat anti-mouse IgG, OD450
Settings: scale: dilution factor

UniProt P01111, sequence (P01111 whole entry, the tested form may be a part): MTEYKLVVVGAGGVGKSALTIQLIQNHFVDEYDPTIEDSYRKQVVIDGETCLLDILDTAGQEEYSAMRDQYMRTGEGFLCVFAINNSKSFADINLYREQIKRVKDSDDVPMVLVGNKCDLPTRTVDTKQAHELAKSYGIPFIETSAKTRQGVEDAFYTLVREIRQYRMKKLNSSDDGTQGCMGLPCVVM

B1: BR2-抗p21Ras单链抗体融合蛋白 (scFv, V domains shown, not shown: small tags and cut ends)
VH: QVKLQESGEGLVKPGGSLKLSCAASGFTFSDYYMYWVRQTPEKRLEWVAIISDGGSYTYYPDSVKGRFTISRDNTKKNLYLQMSSLRSEDTAMYYCARDPHYSGSSRLFVNWGQGTTVTVSS
  结合效价 (ELISA titer): 800
